Results: patent US20260167706A1 (ADRENOMED, published 2026)
Where two headings read alike, the source gives them in different places. Values belong to the binder of their own block, whether it stands above or below them. Where no end group is shown, it is not given here.

Legend:
[1] = molecular target: T1, human recombinant adrenomedullin receptor (CRLR + RAMP3) (human); test: cell-based or functional assay
[2] = molecular target: T1, human recombinant adrenomedullin …; test: cell-based or functional assay; remark: listed apart in the source

T1 sequence (Q16602 whole entry, chain 1 of 2): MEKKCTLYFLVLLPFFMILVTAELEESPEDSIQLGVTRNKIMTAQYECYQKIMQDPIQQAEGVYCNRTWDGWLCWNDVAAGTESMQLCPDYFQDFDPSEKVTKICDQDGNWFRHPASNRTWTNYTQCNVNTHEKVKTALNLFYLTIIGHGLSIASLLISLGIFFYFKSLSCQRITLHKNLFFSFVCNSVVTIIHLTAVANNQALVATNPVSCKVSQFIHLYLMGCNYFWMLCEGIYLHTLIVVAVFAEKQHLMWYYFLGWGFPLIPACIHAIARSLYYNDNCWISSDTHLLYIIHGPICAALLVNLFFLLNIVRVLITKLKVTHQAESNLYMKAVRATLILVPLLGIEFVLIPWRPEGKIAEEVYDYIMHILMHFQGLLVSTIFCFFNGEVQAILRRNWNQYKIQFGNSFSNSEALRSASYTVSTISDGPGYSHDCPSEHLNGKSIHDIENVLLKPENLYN
T1 sequence (O60896 whole entry, chain 2 of 2, further chain): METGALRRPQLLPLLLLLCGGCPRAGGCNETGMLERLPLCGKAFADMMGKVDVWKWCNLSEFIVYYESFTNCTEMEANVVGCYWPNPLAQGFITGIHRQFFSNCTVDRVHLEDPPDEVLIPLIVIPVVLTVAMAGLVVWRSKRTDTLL

EC50 (read off the curve); cAMP, % activation [1]: ~80 pM
Binder: YRQSMNQGSRSNGCRFGTCTFQKLAHQIYQLTDKDKDGMAPRNKISPQGY-NH2 (ends and bridges not checked) [Murine ADM 1-50]

EC50 (read off the curve); cAMP, % activation [2]: ~1000 pM
B1: human Adrenomedullin (mature ADM; amidated ADM; bio-ADM), amino acids 1-52 (peptide)
peptide: YRQSMNNFQGLRSFGCRFGTCTVQKLAHQIYQFTDKDKDNVAPRSKISPQGY-NH2
modifications: ends and bridges not checked
